The substances below were run against HLA-A*02 (Homo sapiens, UniProt P04439, D140Y/D185E/D98H/E176V/E277Q/G131W/G231S/I119V/I121R/I166T/I218V/N151K/N90K/P208A/P217A/Q86G/Q94H/R138H/R169H) (assay: UV-ligand exchange / peptide binding to MHC class I (beta2m ELISA)). Conditions: Table 10B; peptide exchange yield; HLA-A*02 peptides.
From the text: Candidate peptides for T cell based therapies according to the present invention were further tested for their MHC binding capacity (affinity). The individual peptide-MHC complexes were produced by UV-ligand exchange, where a UV-sensitive peptide is cleaved upon UV-irradiation, and exchanged with the peptide of interest as analyzed. Only peptide candidates that can effectively bind and stabilize the peptide-receptive MHC molecules prevent dissociation of the MHC complexes. To determine the yield of the exchange reaction, an ELISA was performed based on the detection of the light chain (β2m) of stabilized MHC complexes. The assay was performed as generally described in Rodenko et al. (Rodenko B, Toebes M, Hadrup S R, van Esch W J, Molenaar A M, Schumacher T N, Ovaa H. Generation of peptide-MHC class I complexes through UV-mediated ligand exchange. Nat Protoc. 2006; 1(3):1120-32).
96 well MAXISorp plates (NUNC) were coated over night with 2 ug/ml streptavidin in PBS at room temperature, washed 4× and blocked for 1 h at 37° C. in 2% BSA containing blocking buffer. Refolded HLA-A*0201/MLA-001 monomers served as standards, covering the range of 15-500 ng/ml. Peptide-MHC monomers of the UV-exchange reaction were diluted 100 fold in blocking buffer. Samples were incubated for 1 h at 37° C., washed four times, incubated with 2 ug/ml HRP conjugated anti-β2m for 1 h at 37° C., washed again and detected with TMB solution that is stopped with […]. Absorption was measured at 450 nm. Candidate peptides that show a high exchange yield (preferably higher than 50%, most preferred higher than 75%) are generally preferred for a generation and production of antibodies or fragments thereof, and/or T cell receptors or fragments thereof, as they show sufficient avidity to the MHC molecules and prevent dissociation of the MHC complexes.

Row | Substance | Peptide exchange (MHC class I binding score)
1 | 71 (KLLDNWDSV; listed as Homo sapiens) [compound 71] | “++++” (≥75% = ++++)
2 | 72 (KLSEAVTSV; listed as Homo sapiens) [compound 72] | “+++” (≥50 = +++)
3 | 74 (KLYDLELIV; listed as Homo sapiens) [compound 74] | “+++” (≥50 = +++)
4 | 75 (KQMEPLHAV; listed as Homo sapiens) [compound 75] | “++” (≥20% = ++)
5 | 76 (LLADIGGDPFAA; listed as Homo sapiens) [compound 76] | “+++” (≥50 = +++)
6 | 77 (LLHEENFSV; listed as Homo sapiens) [compound 77] | “+++” (≥50 = +++)
7 | 78 (LLIDDEYKV; listed as Homo sapiens) [compound 78] | “+++” (≥50 = +++)
8 | 80 (LLYEGKLTL; listed as Homo sapiens) [compound 80] | “++++” (≥75% = ++++)
9 | 81 (NLASFIEQVAV; listed as Homo sapiens) [compound 81] | “+++” (≥50 = +++)
10 | 82 (NVFDGLVRV; listed as Homo sapiens) [compound 82] | “+++” (≥50 = +++)
11 | 83 (QLHDFVMSL; listed as Homo sapiens) [compound 83] | “++++” (≥75% = ++++)
12 | 84 (QLTPVLVSV; listed as Homo sapiens) [compound 84] | “+++” (≥50 = +++)
13 | 85 (RILPKVLEV; listed as Homo sapiens) [compound 85] | “+++” (≥50 = +++)
14 | 86 (RLAAFYSQV; listed as Homo sapiens) [compound 86] | “+++” (≥50 = +++)
15 | 87 (RLFEENDVNL; listed as Homo sapiens) [compound 87] | “+++” (≥50 = +++)
16 | 88 (RLIDRIKTV; listed as Homo sapiens) [compound 88] | “++” (≥20% = ++)
17 | 89 (RLIEEIKNV; listed as Homo sapiens) [compound 89] | “++” (≥20% = ++)
18 | 90 (RLLDVLAPLV; listed as Homo sapiens) [compound 90] | “+++” (≥50 = +++)
19 | 91 (RLPDIPLRQV; listed as Homo sapiens) [compound 91] | “+++” (≥50 = +++)
20 | 92 (RLPPDTLLQQV; listed as Homo sapiens) [compound 92] | “+++” (≥50 = +++)

Row | Substance | Peptide exchange (MHC class I binding score)
21 | 93 (RLYTMDGITV; listed as Homo sapiens) [compound 93] | “++” (≥20% = ++)
22 | 94 (RMSDVVKGV; listed as Homo sapiens) [compound 94] | “+++” (≥50 = +++)
23 | 95 (SICNGVPMV; listed as Homo sapiens) [compound 95] | “+++” (≥50 = +++)
24 | 96 (SLLEEPNVIRV; listed as Homo sapiens) [compound 96] | “++++” (≥75% = ++++)
25 | 97 (SLLPQLIEV; listed as Homo sapiens) [compound 97] | “++++” (≥75% = ++++)
26 | 98 (SLLSPEHLQYL; listed as Homo sapiens) [compound 98] | “+++” (≥50 = +++)
27 | 99 (SLSAFLPSL; listed as Homo sapiens) [compound 99] | “++++” (≥75% = ++++)
28 | 100 (SLVGDIGNVNM; listed as Homo sapiens) [compound 100] | “++” (≥20% = ++)
29 | 101 (SLWEGGVRGV; listed as Homo sapiens) [compound 101] | “+++” (≥50 = +++)
30 | 102 (SLWSVARGV; listed as Homo sapiens) [compound 102] | “+++” (≥50 = +++)
31 | 103 (SMGDHLWVA; listed as Homo sapiens) [compound 103] | “+++” (≥50 = +++)
32 | 104 (SVWFGPKEV; listed as Homo sapiens) [compound 104] | “+++” (≥50 = +++)
33 | 105 (SVYDGKLLI; listed as Homo sapiens) [compound 105] | “++++” (≥75% = ++++)
34 | 106 (TLAAIIHGA; listed as Homo sapiens) [compound 106] | “+++” (≥50 = +++)
35 | 107 (TLGQFYQEV; listed as Homo sapiens) [compound 107] | “++++” (≥75% = ++++)
36 | 108 (TLLKKISEA; listed as Homo sapiens) [compound 108] | “+++” (≥50 = +++)
37 | 109 (TLYALSHAV; listed as Homo sapiens) [compound 109] | “+++” (≥50 = +++)
38 | 110 (TVGGSEILFEV; listed as Homo sapiens) [compound 110] | “++++” (≥75% = ++++)
39 | 111 (TVMDIDTSGTFNV; listed as Homo sapiens) [compound 111] | “+++” (≥50 = +++)
40 | 112 (VLGEVKVGV; listed as Homo sapiens) [compound 112] | “++++” (≥75% = ++++)

Row | Substance | Peptide exchange (MHC class I binding score)
41 | 113 (VLMDKLVEL; listed as Homo sapiens) [compound 113] | “++++” (≥75% = ++++)
42 | 114 (VLSQVYSKV; listed as Homo sapiens) [compound 114] | “+++” (≥50 = +++)
43 | 115 (VVLDDKDYFL; listed as Homo sapiens) [compound 115] | “+++” (≥50 = +++)
44 | 117 (YAFPKSITV; listed as Homo sapiens) [compound 117] | “+++” (≥50 = +++)
45 | 118 (YLDDEKNWGL; listed as Homo sapiens) [compound 118] | “+++” (≥50 = +++)
46 | 119 (YLDKNLTVSV; listed as Homo sapiens) [compound 119] | “+++” (≥50 = +++)
47 | 120 (YLGEEYVKA; listed as Homo sapiens) [compound 120] | “++” (≥20% = ++)
48 | 121 (YLITGNLEKL; listed as Homo sapiens) [compound 121] | “+++” (≥50 = +++)
49 | 122 (YLSQAADGAKVL; listed as Homo sapiens) [compound 122] | “++” (≥20% = ++)
50 | 123 (YLWDLDHGFAGV; listed as Homo sapiens) [compound 123] | “+++” (≥50 = +++)
51 | 124 (LLIDVVTYL; listed as Homo sapiens) [compound 124] | “++++” (≥75% = ++++)
52 | 125 (ALYGRLEVV; listed as Homo sapiens) [compound 125] | “++++” (≥75% = ++++)
53 | 126 (TLLDSPIKV; listed as Homo sapiens) [compound 126] | “+++” (≥50 = +++)
54 | 127 (VLIGSNHSL; listed as Homo sapiens) [compound 127] | “++++” (≥75% = ++++)
55 | 128 (GLAFSLNGV; listed as Homo sapiens) [compound 128] | “++++” (≥75% = ++++)
56 | 129 (SQADVIPAV; listed as Homo sapiens) [compound 129] | “+++” (≥50 = +++)
57 | 130 (ALDAGAVYTL; listed as Homo sapiens) [compound 130] | “++++” (≥75% = ++++)
58 | 131 (ALDSGAFQSV; listed as Homo sapiens) [compound 131] | “+++” (≥50 = +++)
59 | 132 (ALHEEVVGV; listed as Homo sapiens) [compound 132] | “+++” (≥50 = +++)
